Like-named read-outs stand apart in the source and are kept apart here. Each block holds one binder with its values, some of them ahead of it.
Legend:
[1] = target: T1, Human CLDN18.2, NP_001002026.1, claudin-18 isoform 2 [Homo sapiens] (human); assay: flow cytometry on 293T-18.2 cells
[2] = target: T1, Human CLDN18.2, NP_001002026.1, …; assay: flow cytometry titration on 293T-18.2 cells
Experimental: Each well was washed twice with 400 μl FACS buffer. The secondary antibody of PE anti-mouse IgG Fc was added, and incubated for 1 hour before detection by flow cytometry.

[3] = target: T1, Human CLDN18.2, NP_001002026.1, …; assay: flow cytometry titration on 293T-18.2 cells; remark: listed apart in the source
Experimental: (§1) 10 μL of each diluted antibody was added to 100 μL of the above cell samples, mixed and incubated at room temperature for 1 hour.
Each well was washed twice with 400 μl FACS buffer. The secondary antibody of the PE anti-human IgG Fc (Biolegend, Cat409304) was added and incubated for 1 hour before detection by flow cytometry.

[4] = target: T1, Human CLDN18.2, NP_001002026.1, …; assay: cell-based or functional assay
[5] = target: T1, Human CLDN18.2, NP_001002026.1, …; assay: flow cytometry titration on 293T-18.2 cells; remark: listed apart in the source
Experimental: as §1
Each well was washed twice with 400 μl FACS buffer. The secondary antibody of the PE anti-human IgG Fc was added and incubated for 1 hour before detection by flow cytometry.

T1 sequence (chain, as listed by the source limits assumed): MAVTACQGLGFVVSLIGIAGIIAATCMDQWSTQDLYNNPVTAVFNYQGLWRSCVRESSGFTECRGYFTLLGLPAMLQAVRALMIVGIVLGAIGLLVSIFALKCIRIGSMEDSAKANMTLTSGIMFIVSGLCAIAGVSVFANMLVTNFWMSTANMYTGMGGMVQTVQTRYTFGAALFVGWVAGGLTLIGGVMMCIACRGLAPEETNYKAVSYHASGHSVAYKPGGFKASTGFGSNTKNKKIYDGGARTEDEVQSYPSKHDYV

EC50 strength as a multiple of control antibody MAb362 [1]: ~3 fold
EC50 [2]: 0.385 µg/mL
B1: murine anti-CLDN18.2 monoclonal antibody secreted by the hybridoma 7D10-1 (antibody, V domains shown)
VH: QVQLKESGGNLVQPGGSRKLSCAASGFSFSSFGMHWVRQAPEKGLEWVAYISSGSRTIYYADTVKGRFTISRDNAKNTLFLQMTSLRSEDTAMYYCTRYYYGNSFDYWGQGTTLTVSS
VL: DIVMTQAPSSLTVTTGEKVTLACKSSQSLFNTGNQKNYLTWYQQKPGQPPKLLIYWASTRESGVPDRFTGSGSGTAFTLTISSVQAEDLAVYYCQNNYNFPLTFGAGTKLELK
notes: Murine hybridoma antibody detected with PE anti-mouse IgG Fc; also called murine anti-CLDN18.2 antibody

EC50 strength as a multiple of control antibody MAb362 [1]: ~10 fold
EC50 [3]: 0.4 µg/mL
B2: 7D10-1 chimeric antibody (antibody, human IgG1, kappa, L234A L235A, V domains shown)
VH: B1 VH
VL: DIVMTQAPSSLTVTTGEKVTLACKSSQSLFNTGNQKNYLTWYQQKPGQPPKLLIYWASTRESGVPDRFTGSGSGTAFTLTISSVQAEDLAVYYCQNNYNFPLTFGAGTKLELKR
notes: Murine variable regions with a human constant region; also called anti-CLDN18.2 chimeric antibody

EC50 strength as a multiple of control antibody MAb362 [1]: ~4 fold
EC50 of ADCC [4]: 180 nM
EC50 [5]: 0.909 µg/mL
B3: 7D10-1 humanized antibody (antibody, V domains shown)
VH: QVQLVESGGGLVKPGGSLRLSCAASGFSFSSFGMHWVRQAPGKGLEWVAYISSGSRTIYYADTVKGRFTISRDNAKNSLYLQMNSLRAEDTAVYYCTRYYYGNSFDYWGQGTTVTVSS
VL: DIQMTQSPSSLSASVGDRVTITCKSSQSLFNTGNQKNYLTWYQQKPGKAPKLLIYWASTRESGVPSRFSGSGSGTDFTLTISSLQPEDFATYYCQNNYNFPLTFGQGTRLEIK
notes: Cloned into the same pQKX1/pQKX2 vectors as the chimeric antibody and detected with PE anti-human IgG Fc; a human IgG1 isotype control was used in the ADCC assay; also called anti-CLDN18.2 humanized antibody

Reference: patent US20250346665A1 (BEIJING IMMUNOAH PHARMATECH, published 2025)
